These results are taken from article PMC9720396, “Autoreactivity and broad neutralization of antibodies against HIV-1 are governed by distinct mutations: Implications for vaccine design strategies” (Frontiers in Immunology, 2022).

B1: CH103 VH E56H mutant (antibody, V domains shown)
V domain 1: QVQLQESGPGVVKSSETLSLTCTVSGGSMGGTYWSWLRLSPGKGLEWIGYIFHTGHTNYSPSLKGRVSISVDTSEDQFSLRLRSVTAADTAVYFCASLPRGQLVNAYFRNWGRGSLVSVTA
V domain 2: SYELTQPPSVSVSPGQTATITCSGASTNVCWYQVKPGQSPEVVIFENYKRPSGIPDRFSGSKSGSTATLTIRGTQAIDEADYYCQVWDSFSTFVFGSGTQVTV
notes: as the heavy chain of m10 (CH103); as the light chain of m10 (CH103); recombinant IgG; also called the VH E56H mutant; source: Expi293, transiently transfected, purified (Protein A agarose)
B2: IA1, inferred late intermediate of the CH103-106 bnAb lineage (antibody, V domains shown)
V domain 1: QVQLQESGPGVVKSSETLSLTCTVSGGSMGGTYWSWLRLSPGKGLEWIGYIFHTGHTNYSPSLKGRVSISVDTSEDQFSLRLRSVTAADTAVYFCASLPRGQLVNAYFRNWGRGTLVSVTA
V domain 2: SYELTQPPSVSVSPGQTATITCSGDKVASKNVCWYQVKPGQSPEVVMYENYKRPSGIPDRFSGSKSGSTATLTIRGTQATDEADYYCQVWDSFSTFVFGSGTQVTV
notes: as the heavy chain of m8 (IA2) with the two changes below; same light chain as IA2; recombinant IgG; also called 1A1; source: Expi293, transiently transfected, purified (Protein A agarose)
B3: CH103 VH T23S mutant (antibody, V domains shown)
V domain 1: QVQLQESGPGVVKSSETLSLTCSVSGGSMGGTYWSWLRLSPGKGLEWIGYIFHTGETNYSPSLKGRVSISVDTSEDQFSLRLRSVTAADTAVYFCASLPRGQLVNAYFRNWGRGSLVSVTA
V domain 2: SYELTQPPSVSVSPGQTATITCSGASTNVCWYQVKPGQSPEVVIFENYKRPSGIPDRFSGSKSGSTATLTIRGTQAIDEADYYCQVWDSFSTFVFGSGTQVTV
notes: as the heavy chain of m10 (CH103); as the light chain of m10 (CH103); recombinant IgG; source: Expi293, transiently transfected, purified (Protein A agarose)
B4: CH103 VL E45D mutant (antibody, V domains shown)
V domain 1: QVQLQESGPGVVKSSETLSLTCTVSGGSMGGTYWSWLRLSPGKGLEWIGYIFHTGETNYSPSLKGRVSISVDTSEDQFSLRLRSVTAADTAVYFCASLPRGQLVNAYFRNWGRGSLVSVTA
V domain 2: SYELTQPPSVSVSPGQTATITCSGASTNVCWYQVKPGQSPDVVIFENYKRPSGIPDRFSGSKSGSTATLTIRGTQAIDEADYYCQVWDSFSTFVFGSGTQVTV
notes: as the heavy chain of m10 (CH103); as the light chain of m10 (CH103); recombinant IgG; also called the VL E45D mutant; source: Expi293, transiently transfected, purified (Protein A agarose)
B5: IA2, inferred late intermediate of the CH103-106 bnAb lineage (antibody, V domains shown)
V domain 1: QVQLQESGPGVVKSSETLSLTCTVSGGSMGGTYWSWLRLSPGKGLEWIGYIFHTGHTNYNPSLEGRVSISVDTSEDQFSLRLRSVTAADTAVYFCASLPRGQLVNAYFRNWGRGTLVSVTA
V domain 2: SYELTQPPSVSVSPGQTATITCSGDKVASKNVCWYQVKPGQSPEVVMYENYKRPSGIPDRFSGSKSGSTATLTIRGTQATDEADYYCQVWDSFSTFVFGSGTQVTV
notes: same light chain as IA1; recombinant IgG; source: Expi293, transiently transfected, purified (Protein A agarose)
B6: CH106, mature CD4 binding site bnAb (antibody, V domains shown)
V domain 1: QVQLQESGPGVVKSSETLSLTCSVSGGSMGGTYWSWLRLSPGKGLEWIGYIFHTGHTNYSPSLKGRVSISVDTSEDQFSLRLRSVTAADTAVYFCASLPRGQLVNAYFRNWGRGILVSVTA
V domain 2: SYELTQPPSVSVSPGQTATITCSGDKVASVNVCWYQVKPGQSPDVVMYENYKRPSGIPDRFSGSKSGSTATLTIRGTQATDEAEYYCQVWDSFSTFVFGSGTQVTV
notes: as the heavy chain of m10 (CH103) with the three differences below; as the light chain of m10 (CH103) with the differences below and a 3-aa (DKV) insertion; recombinant IgG; source: Expi293, transiently transfected, purified (Protein A agarose)
B7: CH103, mature CD4 binding site bnAb (antibody, V domains shown)
V domain 1: QVQLQESGPGVVKSSETLSLTCTVSGGSMGGTYWSWLRLSPGKGLEWIGYIFHTGETNYSPSLKGRVSISVDTSEDQFSLRLRSVTAADTAVYFCASLPRGQLVNAYFRNWGRGSLVSVTA
V domain 2: SYELTQPPSVSVSPGQTATITCSGASTNVCWYQVKPGQSPEVVIFENYKRPSGIPDRFSGSKSGSTATLTIRGTQAIDEADYYCQVWDSFSTFVFGSGTQVTV
notes: recombinant IgG; source: Expi293, transiently transfected, purified (Protein A agarose)
B8: CH103 VL I48M mutant (antibody, V domains shown)
V domain 1: QVQLQESGPGVVKSSETLSLTCTVSGGSMGGTYWSWLRLSPGKGLEWIGYIFHTGETNYSPSLKGRVSISVDTSEDQFSLRLRSVTAADTAVYFCASLPRGQLVNAYFRNWGRGSLVSVTA
V domain 2: SYELTQPPSVSVSPGQTATITCSGASTNVCWYQVKPGQSPEVVMFENYKRPSGIPDRFSGSKSGSTATLTIRGTQAIDEADYYCQVWDSFSTFVFGSGTQVTV
notes: as for B3
B9: CH103 VL I81T mutant (antibody, V domains shown)
V domain 1: QVQLQESGPGVVKSSETLSLTCTVSGGSMGGTYWSWLRLSPGKGLEWIGYIFHTGETNYSPSLKGRVSISVDTSEDQFSLRLRSVTAADTAVYFCASLPRGQLVNAYFRNWGRGSLVSVTA
V domain 2: SYELTQPPSVSVSPGQTATITCSGASTNVCWYQVKPGQSPEVVIFENYKRPSGIPDRFSGSKSGSTATLTIRGTQATDEADYYCQVWDSFSTFVFGSGTQVTV
notes: as for B3
B10: CH103 VL F49Y mutant (antibody, V domains shown)
V domain 1: QVQLQESGPGVVKSSETLSLTCTVSGGSMGGTYWSWLRLSPGKGLEWIGYIFHTGETNYSPSLKGRVSISVDTSEDQFSLRLRSVTAADTAVYFCASLPRGQLVNAYFRNWGRGSLVSVTA
V domain 2: SYELTQPPSVSVSPGQTATITCSGASTNVCWYQVKPGQSPEVVIYENYKRPSGIPDRFSGSKSGSTATLTIRGTQAIDEADYYCQVWDSFSTFVFGSGTQVTV
notes: as for B3
B11: CH103 VL D85E mutant (antibody, V domains shown)
V domain 1: QVQLQESGPGVVKSSETLSLTCTVSGGSMGGTYWSWLRLSPGKGLEWIGYIFHTGETNYSPSLKGRVSISVDTSEDQFSLRLRSVTAADTAVYFCASLPRGQLVNAYFRNWGRGSLVSVTA
V domain 2: SYELTQPPSVSVSPGQTATITCSGASTNVCWYQVKPGQSPEVVIFENYKRPSGIPDRFSGSKSGSTATLTIRGTQAIDEAEYYCQVWDSFSTFVFGSGTQVTV
notes: as for B3
B12: CH103 VL mutant with the 3-aa insertion (DKV) (antibody, V domains shown)
V domain 1: QVQLQESGPGVVKSSETLSLTCTVSGGSMGGTYWSWLRLSPGKGLEWIGYIFHTGETNYSPSLKGRVSISVDTSEDQFSLRLRSVTAADTAVYFCASLPRGQLVNAYFRNWGRGSLVSVTA
V domain 2: SYELTQPPSVSVSPGQTATITCSGDKVASTNVCWYQVKPGQSPEVVIFENYKRPSGIPDRFSGSKSGSTATLTIRGTQAIDEADYYCQVWDSFSTFVFGSGTQVTV
notes: as the heavy chain of m10 (CH103); as the light chain of m10 (CH103) with DKV inserted as in CH106; recombinant IgG; also called 3-aa (DKV) insertion; source: Expi293, transiently transfected, purified (Protein A agarose)
B13: CH103 mutant containing both the E56H and E45D mutations (antibody, V domains shown)
V domain 1: QVQLQESGPGVVKSSETLSLTCTVSGGSMGGTYWSWLRLSPGKGLEWIGYIFHTGHTNYSPSLKGRVSISVDTSEDQFSLRLRSVTAADTAVYFCASLPRGQLVNAYFRNWGRGSLVSVTA
V domain 2: SYELTQPPSVSVSPGQTATITCSGASTNVCWYQVKPGQSPDVVIFENYKRPSGIPDRFSGSKSGSTATLTIRGTQAIDEADYYCQVWDSFSTFVFGSGTQVTV
notes: as the heavy chain of m10 (CH103); as the light chain of m10 (CH103); recombinant IgG; the double mutant is named only in the results; also called CH103 VH E56H + VL E45D; source: Expi293, transiently transfected, purified (Protein A agarose)
B14: CH103 VL T31V mutant (antibody, V domains shown)
V domain 1: QVQLQESGPGVVKSSETLSLTCTVSGGSMGGTYWSWLRLSPGKGLEWIGYIFHTGETNYSPSLKGRVSISVDTSEDQFSLRLRSVTAADTAVYFCASLPRGQLVNAYFRNWGRGSLVSVTA
V domain 2: SYELTQPPSVSVSPGQTATITCSGASVNVCWYQVKPGQSPEVVIFENYKRPSGIPDRFSGSKSGSTATLTIRGTQAIDEADYYCQVWDSFSTFVFGSGTQVTV
notes: as for B3
B15: CH103 VH S107I mutant (antibody, V domains shown)
V domain 1: QVQLQESGPGVVKSSETLSLTCTVSGGSMGGTYWSWLRLSPGKGLEWIGYIFHTGETNYSPSLKGRVSISVDTSEDQFSLRLRSVTAADTAVYFCASLPRGQLVNAYFRNWGRGILVSVTA
V domain 2: SYELTQPPSVSVSPGQTATITCSGASTNVCWYQVKPGQSPEVVIFENYKRPSGIPDRFSGSKSGSTATLTIRGTQAIDEADYYCQVWDSFSTFVFGSGTQVTV
notes: as for B3

For the first experiment, the target named is T1, Cen B (Homo sapiens (assumed), UniProt P07199).
T1 construct: Cen B autoantigen (centromere protein B) of the autoantigen ELISA
T1 sequence (P07199 whole entry): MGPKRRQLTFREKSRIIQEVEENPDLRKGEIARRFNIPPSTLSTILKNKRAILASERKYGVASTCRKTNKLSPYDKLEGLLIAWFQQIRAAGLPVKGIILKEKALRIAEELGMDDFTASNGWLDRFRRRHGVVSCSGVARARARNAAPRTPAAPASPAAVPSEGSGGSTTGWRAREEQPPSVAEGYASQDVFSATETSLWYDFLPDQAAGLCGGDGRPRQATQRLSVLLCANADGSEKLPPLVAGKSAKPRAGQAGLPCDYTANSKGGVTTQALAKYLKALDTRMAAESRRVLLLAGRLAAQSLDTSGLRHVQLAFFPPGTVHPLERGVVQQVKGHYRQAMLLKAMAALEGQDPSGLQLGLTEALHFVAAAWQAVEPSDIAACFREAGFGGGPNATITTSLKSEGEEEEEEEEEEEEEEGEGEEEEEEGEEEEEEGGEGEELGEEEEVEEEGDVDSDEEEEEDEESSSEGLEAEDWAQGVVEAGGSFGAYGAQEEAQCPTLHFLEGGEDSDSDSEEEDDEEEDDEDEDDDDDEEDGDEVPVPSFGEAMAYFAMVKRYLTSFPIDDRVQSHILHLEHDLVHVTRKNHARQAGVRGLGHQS
The experiment in a line: ELISA; autoantigen ELISA (legend: Athena autoantigen assay); antigens coated at 20 µg/ml overnight at 4°C; Abs in serial dilutions 45 min at RT; HRP anti-human IgG, TMB, 450 nm. The settings on record: both partners purified.
As for B1, the binding result is “binds”.

The target of the next experiment is host proteins on the ProtoArray (9,400 human proteins) (human). In words: peptide or protein array; ProtoArray (Invitrogen) with 9,400 human proteins, in duplicate; 2 µg/ml recombinant Ab, 1.5 hours at 4°C; detected with Alexa Fluor 647 anti-human IgG; compared with the control Ab 151K.
Settings: not given
Regarding B2, the polyreactivity index (PI) was 0.64.

The target of another experiment is T2, UBE3A on the ProtoArray human protein microarray (Homo sapiens, UniProt Q05086).
T2 construct: UBE3A, one of the 9,400 human proteins on the ProtoArray; source: bought: Invitrogen ProtoArray
Described as above. The settings on record: both partners purified.
For B2, the “fold higher binding than Abs without E64K” value was around 10 fold.

The target of another experiment is T3, host protein UBE3A (Abcam), coupled to Luminex beads (Homo sapiens, UniProt Q05086).
T3 construct: UBE3A, host protein; bought from Abcam (printed there as UBE34); also called UBE34; source: bought: Abcam
T3 sequence (Q05086 whole entry): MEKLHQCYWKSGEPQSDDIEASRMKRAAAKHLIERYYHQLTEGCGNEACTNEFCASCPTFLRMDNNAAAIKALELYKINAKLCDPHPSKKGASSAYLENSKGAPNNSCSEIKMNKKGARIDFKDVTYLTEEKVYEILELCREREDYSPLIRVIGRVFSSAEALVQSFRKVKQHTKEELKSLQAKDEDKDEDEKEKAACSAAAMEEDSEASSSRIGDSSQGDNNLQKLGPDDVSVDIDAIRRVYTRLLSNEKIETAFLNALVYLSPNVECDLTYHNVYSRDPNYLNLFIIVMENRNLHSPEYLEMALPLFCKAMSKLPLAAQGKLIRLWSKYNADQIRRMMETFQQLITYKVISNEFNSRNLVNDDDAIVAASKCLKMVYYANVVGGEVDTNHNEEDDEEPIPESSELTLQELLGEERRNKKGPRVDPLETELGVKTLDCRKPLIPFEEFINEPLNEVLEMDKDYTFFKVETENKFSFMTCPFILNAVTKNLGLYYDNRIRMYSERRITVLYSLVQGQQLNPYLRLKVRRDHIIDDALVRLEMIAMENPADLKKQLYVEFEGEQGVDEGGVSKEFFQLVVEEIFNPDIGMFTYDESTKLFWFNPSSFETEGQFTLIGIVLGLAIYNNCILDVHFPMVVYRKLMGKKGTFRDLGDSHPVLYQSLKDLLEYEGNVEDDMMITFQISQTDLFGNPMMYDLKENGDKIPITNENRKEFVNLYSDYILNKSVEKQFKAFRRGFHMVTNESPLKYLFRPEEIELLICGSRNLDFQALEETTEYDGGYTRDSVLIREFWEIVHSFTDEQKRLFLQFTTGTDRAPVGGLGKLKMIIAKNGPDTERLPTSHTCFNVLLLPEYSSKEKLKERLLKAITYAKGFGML
The experiment in a line: Luminex bead-based binding assay; UBE3A (Abcam) covalently linked to carboxylated beads; Abs serially diluted 1:3 from 2 µg/ml in PBS with 0.05% NaN3, 0.05% Tween 20, 1% BSA and 1% milk; 2 hours at room temperature; detected with PE goat anti-human IgG. The settings on record: both partners purified.
In the case of B3, the binding result was “binds”.

For B4, the binding result is “binds”.

In the case of B5, the binding result was “no binding (tested: 2 µg/ml)”.

In the case of B6, the binding result was “binds”.

With B7, the binding result is listed as “binds”.

With B8, the “fold reduction of binding against parental CH103” value is around 10 fold.

Turning to B9, the binding result is “binds”.

Turning to B10, the “fold reduction of binding against parental CH103” value is around 10 fold.

As for B11, the binding result was “binds”.

Consider B12, for which the binding result is “binds”.

As for B1, the binding result is recorded as “binds”.

B13: the binding result is listed as “binds”.

With B14, the binding result was “binds”.

As for B15, the binding result was “binds”.
